For this assay, the target named is NKG2D-based chimeric antigen receptor of CYAD-01 cells (full length human NKG2D fused to the CD3zeta signalling domain) (UniProt P26718).

Where only a bound is given, the exact number is not on record here.

In turn, “MICB (major histocompatibility complex class I chain-related B), recombinant (from UniProt Q29980 23-383) (ligand)” had a cytokine secretion by CYAD-01 cells cultured with plate-bound ligand of over 0.25 µg/mL. To “MICA (major histocompatibility complex class I chain-related A), recombinant (from UniProt Q29983 24-383) (ligand)” belongs over 0.25 µg/mL.

B1: ULBP1 (UL16 binding protein 1), recombinant (ligand)
chain: GWVDTHCLCYDFIITPKSRPEPQWCEVQGLVDERPFLHYDCVNHKAKAFASLGKKVNVTKTWEEQTETLRDVVDFLKGQLLDIQVENLIPIEPLTLQARMSCEHEAHGHGRGSWQFLFNGQKFLLFDSNNRKWTALHPGAKKMTEKWEKNRDVTMFFQKISLGDCKMWLEEFLMYWEQMLDPTKPPSLAPG
For B1, the cytokine secretion by CYAD-01 cells cultured with plate-bound ligand is over 5 µg/mL.

B2: ULBP2 (UL16 binding protein 2), recombinant (ligand)
chain: GRADPHSLCYDITVIPKFRPGPRWCAVQGQVDEKTFLHYDCGNKTVTPVSPLGKKLNVTTAWKAQNPVLREVVDILTEQLRDIQLENYTPKEPLTLQARMSCEQKAEGHSSGSWQFSFDGQIFLLFDSEKRMWTTVHPGARKMKEKWENDKVVAMSFHYFSMGDCIGWLEDFLMGMDSTLEPSAGAPLAMSS
For B2, the cytokine secretion by CYAD-01 cells cultured with plate-bound ligand was over 5 µg/mL.

B3: ULBP3 (UL16 binding protein 3), recombinant (ligand)
chain: DAHSLWYNFTIIHLPRHGQQWCEVQSQVDQKNFLSYDCGSDKVLSMGHLEEQLYATDAWGKQLEMLREVGQRLRLELADTELEDFTPSGPLTLQVRMSCECEADGYIRGSWQFSFDGRKFLLFDSNNRKWTVVHAGARRMKEKWEKDSGLTTFFKMVSMRDCKSWLRDFLMHRKKRLEPTAPPTMAPG
Molecule B3 registered a cytokine secretion by CYAD-01 cells cultured with plate-bound ligand of over 5 µg/mL.

The values are drawn from article PMC6220480.
